In patent US20180009892A1 one finds Percentage Blocking data, which are given here for 1 substance.

The experiment deals with human ROR1 extracellular domain (ECD) protein (human) (UniProt Q01973). Put plainly: ForteBio Octet, blocking of Wnt5a binding to ROR1. Background: In BLI a coated tip is dipped into the sample, and binding shifts an interference pattern.
human ROR1 extracellular domain (ECD) protein (human), sequence (Q01973 30-406 limits assumed): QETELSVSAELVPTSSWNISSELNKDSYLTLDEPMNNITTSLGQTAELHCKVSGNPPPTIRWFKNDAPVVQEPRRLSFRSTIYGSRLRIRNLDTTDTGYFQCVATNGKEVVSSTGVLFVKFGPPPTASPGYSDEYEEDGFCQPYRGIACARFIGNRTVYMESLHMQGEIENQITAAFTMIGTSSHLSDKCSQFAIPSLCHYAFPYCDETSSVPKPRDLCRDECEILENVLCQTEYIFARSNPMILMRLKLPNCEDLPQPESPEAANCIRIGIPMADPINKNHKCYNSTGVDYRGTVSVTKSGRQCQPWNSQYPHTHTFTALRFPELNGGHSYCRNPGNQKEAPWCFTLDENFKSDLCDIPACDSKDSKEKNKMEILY

With mAb Control (antibody), the Percentage Blocking amounted to 0%.
